Test results taken from patent US20200317776A1 (published 2020).

Assays:
[1] = target: T1, human TREM2/DAP12 fusion protein (human, UniProt O43914 41-113, limits assumed); assay: cell-based or functional assay
[2] = target: T2, human TREM2 expressed on cells (human, UniProt Q9NZC2 19-230); assay: cell-based or functional assay
T2 sequence: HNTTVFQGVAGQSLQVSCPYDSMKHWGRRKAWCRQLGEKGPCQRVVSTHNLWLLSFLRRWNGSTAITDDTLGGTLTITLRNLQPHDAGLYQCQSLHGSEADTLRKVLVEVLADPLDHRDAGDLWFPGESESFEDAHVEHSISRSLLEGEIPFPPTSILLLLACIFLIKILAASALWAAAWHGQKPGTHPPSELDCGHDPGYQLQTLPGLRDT

[3] = target: T2, human TREM2 expressed on cells; assay: FACS, hTREM2 BW cells
[4] = target: T1, human TREM2/DAP12 fusion protein; assay: cell-based or functional assay; remark: listed apart in the source
[5] = target: T2, human TREM2 expressed on cells; assay: FACS, hTREM2 BW cells; remark: listed apart in the source
Description: To examine cell binding of anti-TREM2 antibodies, recombinant, human TREM2-expressing BW5147.G.1.4 cells (ATCC® TIB48™) were established by stably expressing either mouse TREM2 or human TREM2 together with Dap12 using viral infection. Cells were harvested by scraping, washed in PBS, counted and plated on 96-well U bottom plates at 1)(10⁵ cells/well. The plates were spun at 1,400 rpm for 3 minutes and primary anti-TREM2 or control antibodies were added in FACS buffer (PBS H2% FBS) and incubated on ice for one hour. Cells were subsequently centrifuged as before and washed thrice with FACS buffer. Cells were then incubated with anti-human PE conjugated secondary antibody (BD Biosciences) in FACS buffer for 30 minutes on ice. Cells were again washed thrice with FACS buffer and analyzed on a BD FACS Canto. Binding was measured as mean fluorescence intensity in the APC channel.

[6] = target: T3, human TREM2 Fc fusion (entire TREM2 ECD; only one Fc arm fused to TREM2) (human, UniProt Q9NZC2 19-174); assay: BLI, Fab, monovalent
T3 construct: also called huTREM2-Fc; recombinant hTREM2
T3 sequence: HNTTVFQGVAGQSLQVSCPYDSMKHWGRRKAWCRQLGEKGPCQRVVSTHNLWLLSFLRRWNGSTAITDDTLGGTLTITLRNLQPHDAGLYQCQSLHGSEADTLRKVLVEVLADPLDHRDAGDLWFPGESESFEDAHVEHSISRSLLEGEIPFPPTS
Description: Briefly, IgG's were loaded on-line onto AHQ sensors. Sensors were equilibrated off-line in assay buffer for 30 minutes and then monitored on-line for 60 seconds for baseline establishment. For avid binding measurement, sensors with loaded IgGs were exposed to 100 nM antigen (human TREM2 Fc fusion using the entire TREM2 ECD; only one Fc arm was fused to TREM2) for 3 minutes, afterwards they were transferred to assay buffer for 3 minutes for off-rate measurement. Monovalent binding measurements were obtained by loading human TREM2 Fe fusion antigens to AHQ sensor and followed by exposure to 100 nM TREM2 antibody Fab. Kinetics data were fit using a 1:1 binding model in the data analysis software provided by ForteBio. Assay was run at room temperature (25° C.).

T1 sequence (O43914 other isoform, or with tags, fused parts or gaps limits assumed): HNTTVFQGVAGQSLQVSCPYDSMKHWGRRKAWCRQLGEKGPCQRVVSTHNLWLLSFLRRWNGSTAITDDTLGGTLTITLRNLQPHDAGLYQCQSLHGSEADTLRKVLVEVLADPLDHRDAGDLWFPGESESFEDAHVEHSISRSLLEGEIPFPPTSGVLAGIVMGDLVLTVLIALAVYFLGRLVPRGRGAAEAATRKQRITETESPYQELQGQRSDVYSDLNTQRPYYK

| Binder | Plate bound IgG, fold over unstimulated control (25 nM IgG) [1] [fold] | Soluble IgG, EC50 [1] [nM] | Soluble IgG, fold over control IgG (17 nM IgG) [1] [fold] | EC50 viability, dendritic cells D558 [2] [nM] | EC50 viability, dendritic cells D559 [2] [nM] | EC50 viability, dendritic cells D560 [2] [nM] | EC50 viability, macrophages D558 [2] [nM] | EC50 viability, macrophages D559 [2] [nM] | EC50 viability, macrophages D560 [2] [nM] | Bmax (MFI) [3] [MFI] | Kd [3] [nM] | Soluble luciferase activation at 10 µg/ml Fold over control [4] [fold over control] | cell binding (FOB) [5] [FOB] | Kd [6] [nM] |
| --- | --- | --- | --- | --- | --- | --- | --- | --- | --- | --- | --- | --- | --- | --- |
| AL2p-47 huIgG1 (antibody, V domains shown) VH: QVQLVQSGAEVKKPGSSVKVSCKASGYAFSSDWMNWVRQAPGQGLEWMGRIYPGEGDTNYARKFHGRVTITADESTSTAYMELSSLRSEDTAVYYCARLLRNKPGESYAMDYWGQGTLVTVSS VL: DVVMTQTPLSLSVTPGQPASISCRTSQSLVHSNAYTYLHWYLQKPGQSPQLLIYKVSNRVSGVPDRFSGSGSGTDFTLKISRVEAEDVGVYYCSQSTRVPYTFGQGTKLEIKR | 3.94 | 6.5 | 8.77 | 1.02 | 1.13 | 0.672 | 0.013 | 1.56 | 1.25 | 226000 | 1.2 |  |  |  |
| AL2p-61 huIgG1 (antibody, V domains shown) VH: QVQLVQSGAEVKKPGSSVKVSCKASGYAFSSQWMNWVRQAPGQGLEWMGRIYPGEGDTNYARKFQGRVTITADESTSTAYMELSSLRSEDTAVYYCARLLRNQPGESYAMDYWGQGTLVTVSS VL: GVVMTQTPLSLSVTPGQPASISCRSSQSLVHSNQYTYLHWYLQKPGQSPQLLIYKVSNRRSGVPDRFSGSGSGTDFTLKISRVEAEDVGVYYCSQSTRVPYTFGQGTKLEIKR | 8.97 | 5.24 | 10.8 |  |  |  |  |  |  | 211000 | 0.42 |  |  |  |
| AL2p huIgG1 (human mouse chimeric parental antibody) (antibody, V domains shown, Mouse variable region with human IgG1 Fc region; Fab and IgG formats under one id; also called chimeric parental AL2p antibody as huIgG1) VH: QVQLQQSGPELVKPGASLKISCKASGYAFSSSWMNWVKQRPGKGLEWIGRIYPGDGDTNYNGEFRVRATLTADTSSTTAYMQLSSLTSEDSAVYFCARLLRNQPGESYAMDYWGQGASVTVSS VL: DVVMTQTPLSLPVSLGDQASISCRSSQSLVHSNGYTYLHWYLQKPGQSPKLLIYKVSNRFSGVPDRFSGSGSGTDFTLKISRVEADDLGVYFCSQSTRVPYTFGGGTKLEIK | 1.29 | 14.6 | 4.51 | 95.7 | 41.2 | 55.1 | 12.3 | 146 | 129 | 199000 | 1.32 | 3.55 | 79 | 102 |
